Holding throughout (assay): AlphaScreen or HTRF
For orientation: Bead proximity is the source of the signal in Alpha formats.

Experiment [1] concerns the target T1, GST-PSD95(1–392) (UniProt P31016 1-392).
Experiment [2] deals with T1, GST-PSD95(1–392). This is another data set of the same source.
Experiment [3] concerns the target His-PSD95(1–392) (UniProt P31016 1-392).

Where no end group is shown, it is not given here.

B1: His-nNOS(1–299) (domain or fragment, UniProt P29476-1 1-299, looked up)
chain: MEENTFGVQQIQPNVISVRLFKRKVGGLGFLVKERVSKPPVIISDLIRGGAAEQSGLIQAGDIILAVNDRPLVDLSYDSALEVLRGIASETHVVLILRGPEGFTTHLETTFTGDGTPKTIRVTQPLGPPTKAVDLSHQPSASKDQSLAVDRVTGLGNGPQHAQGHGQGAGSVSQANGVAIDPTMKSTKANLQDIGEHDELLKEIEPVLSILNSGSKATNRGGPAKAEMKDTGIQVDRDLDGKSHKAPPLGGDNDRVFNDLWGKDNVPVILNNPYSEKEQSPTSGKQSPTKNGSPSRCPR
The term EC50 denotes the midpoint of the concentration-response curve. A lower EC50 goes with an effect from little substance. Molecule B1 registered an EC50 in experiment [1] of 30 nM.

B2: nNOS(1–130) without any tag (domain or fragment, UniProt P29476-1 1-130, looked up)
chain: MEENTFGVQQIQPNVISVRLFKRKVGGLGFLVKERVSKPPVIISDLIRGGAAEQSGLIQAGDIILAVNDRPLVDLSYDSALEVLRGIASETHVVLILRGPEGFTTHLETTFTGDGTPKTIRVTQPLGPPT
By IC50 is commonly meant the concentration that gives 50% inhibition. A low value points to higher potency. B2 yielded an IC50 in experiment [2] of 30 nM.
Regarding SLKPGTVLPPPPYRHRNTVV (peptide, UniProt Q15303 1289-1308, looked up, not fully specified (N-terminus); also: biotin (position not given here)) [Biot-ErbB4(1289–1308)], the EC50 in experiment [3] was 10 nM.

The record behind these values is article PMC4539046 (Neuropharmacology, 2015).
